Assay results reported in the domain aggregation screens of Martell et al. (2025).

Experiment: soluble fraction after stress (log2 fold change); higher = more stays soluble; pooled small domains, quantitative proteomics
Details: stress: 75 degC
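Note: 20 min heating vs room temperature control held 20 min.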

Sequence	soluble fraction (log2)
HMTTTSGLIKTIQTGRRKLGMDDETYRALLADVSGGKTSSKDLNAYQLKEVLRRMREAGFRS	0.58
HMTVDAVALGRRVRHLRKQAGLTLDQLAERTGVSGSHLSLVENARREPRLSLVQRIAEVLGVPVEDL	-1.49
HMTVGEKIQYYRKKIGLSQEELGQKMLLSRQTISLWEMDKTLPTVDNLLRLKEIFSVSIDELLSENEPK	-1.31
HMTVKNFNDLPGFKNENLAELKAMGITTISELAEALNDGGKIKEIIKNLSGVGPKTAEKWKDAIG	≥ 1.04
HMTVKVPDLRGKTLAEMQRILDDAGLKYEINDSTFSRTAIPGTVREVIPAPGSEVKLGRILFIAINGF	-2.19
HMTVLIDEQSSDGLLKITVTANTAVKSITIADELLEDKEQLEDYLILVLNKAIARANQVNQTELDAVAK	0.0536
HMTVPAGIVLSSIRQDGDVLHIRGTAQSTERLNFFRNSFSASWGSPAQNGKRKADPVTGLVDFTISLK	-0.758
HMTVPMKILILEDEQRNAMRLIRLLNDIDTTFIIEGPLTNIKEAVDFFQSGKTTDLILADIRL	-0.254
HMTVSADQTTADAVIKLIDAIGTVSKNSGSAISAARSGYDALTDAQKKLVTNYNKLTQAEQVFSSLS	0.494
HMTVSLTDVPFVPEILDRLERPELDVLLAILNGATNTFDLAAKTGRSRDELDEVLDRLTTLGLIER	-0.532
HMTVTLTTLRNGSTGAQVKTLQRLLSAMDYYNGETDGKFGISTAAAVKAFQRAKRLTVDGIVGKNTWTALL	-1.2
HMTVTMADISQAYNEKRYLTTISLSNTYLTFAKPTTELLSIRYRTYFIIGKYAESLTEIAKL	0.294
HMTVTTDITQYFLQENGLLNGPNARQLRQKIGETLNIGYTNGKQLLKRAQQFGLTRDQILTALKK	-0.638
HMTVVIKVQASQLESWKSSAGTEIKAKLIAVEDEKTYLFVTETGKTIRATAAQLDESSVSRARKLAGL	-2.37
HMTYGYFELKAKNLDSLKQFLKGIAQVESIEEENNGLKVFLKNELESEELSEKLAEAKIFVSHLAKKK	-0.265
HMTYKPAADFKPSDTSSLKEGMKVEHPKFGFGTVMKMEEVGTERKARINFADFGEKTLLLSFAKLKIHEN	-0.256
HMTYNEYPEKEMQDLIDKSISQQEQAASQYGYSLGDYVTARYGFQSESDFREYVQGLAEDYMKEKI	-0.476
HMTYQHQSIIHRRTRGAILTAAKELLAESGISGTNMIEIADRAQVSRASLYNHFRDKHEVFLALVES	-0.591
HMTYSAWIEKAYSELEKKGITEAELSDALDKRGINLEDLKLMGPDEAVKYQSEVEGVVLELSKSKE	0.154
HMTYSEEEIERDLYVRGTLYQIGDLVENKIDGTSGEIVRRGPNYVQYSDGENFYKAFLHSIQEV	0.0161
HMTYTMVAYGSQGDAVRQLQSELNRHGYQLDEDGVFGKKTRAAVRDYQKKNSLRLDGIAGDETWGSLLA	0.696
HMTYTPRAGSLASQVIGFFRHNPDEELLLDDITDKFDATRGNIHTLLAEAVRFKLLARYRNDDGDYVYKPG	-3.06
HMVAADTVQVPDVTGKTVADAKQALISAGLQVGTVTAKDGKETANTILETSPAAGTSVDKGSKVNLVYSTG	0.00808
HMVAAITDLPVKSVNGRQMYYYVVRKGETVYSLTHTLGITHDRLVKANRSVEDGLRAGQILYFPVSEFG	-2.95
HMVAELAEMAENKNITSAQLALAWILKQSENIIPIPGTKRIKYLNENIEAVNVDLSKEDVENIENLLRKYP	-0.104
HMVAGHLQEKNGQFYAVLSYKDTKGKRRTKWVPTGLMVRGNKKRAEAMLNDIRRKFVPPEQED	-0.474

Sequence	soluble fraction (log2)
HMVAGPDEPLSDREQGVLDLLAEGLSNKAISKQLGISVATVKSHLSNIYGKLQAENRMQAVARARELGLM	≥ 1.04
HMVAISNTSGLAGVAYWIQSNIPKGIDIRKDNPGIVTIKNWIDEEYRKGRTTTISEEEMFKLVREYMPEL	-1.87
HMVAMGQRVVPLTHLSIDDVRRLLESTYGKDSGIEVTKPGTAAKGVIVTAPRTELDGIVALVKQA	-0.113
HMVAMYLRVGISNGRRYLSIVQGYRDQVTKKVRHNTVKSLGYLDDLEKHYPDPIAHFKAVVEEMNKKQALE	-2.04
HMVANDQILNQYGISDREAEIIGLLIEGLSNQQIAKQLYISPNTVKTHIKNIYAKVGVNNRLQLFSLLK	-0.435
HMVANLPFNYKVYAKKGKLYVVISYKDSNGKYKKKWIRTGLDEGTKKKEVNTVADQIAAEYYSSMRLE	-3.52
HMVAQQINDFRSERDASTGTLKRPLFDTLRDVISSRAQAYVSATGKPVTVEDLDRIYQAVEAEAKQAL	0.0174
HMVDDELTARRRVNLRRIADELGGAAAVARKTQKSVQQISSMLNGTKSFGSKIARDIEPKLGLPLQSLDKE	0.0147
HMVDDRPVTGTTLIREWQGRAYEVIVQAGHFEFQGQRYQSLSAIAKVITGTVWNGWAFFGLR	-0.415
HMVDDTGLPTVLISDGRLLERNLHRLHLDHTWLQRRLEENNIPSIQSLFLLTVDKQHQLYFLKK	-1.74
HMVDGTPALTDLKKVSKPGRRHYTGSQEIPRVLNGLGISIVSTSKGIMTGAQARRQKVGGELLAFV	0.0345
HMVDIIMDLLEAVAQARPADAFIKSLHIQYQERGGLSKKQLQGLYGKAAKTAGIPPGKLATLEAIILKRP	-2.52
HMVDITPDLIRTLLERFGEYGVTKEHIEARIQRHIESILPAQVVQLRKTYNSLKDGMSQPSDWFDI	-1.9
HMVDLEINGRQTLQFVANKYGIPVEKLATDLNIPSDRFGEKLGRLRRQYAFTMNDVRKSILKNK	-0.588
HMVDPELFIWVESSKEPVYHLAYKIELFVHSTDPQDDVPVHRWQVFVDAHNGNILDKFDEVR	-0.292
HMVDPRWETPDENLAEQIKSVMPVMWVYDREAKSFVERPAIDFSFSIFERTTLYIYDKDGNEIGFAR	-0.0443
HMVDQVDKDRFLEALTQLGGSAGNVRLRETLQWEEEVYVIIKDALVKSGTILTGRGRGGSVLLASA	-0.95
HMVDSLTIGRRIRQLRTERGMTLEELAAAVGRAPSQLSMIENGRREPKLTLLQAIARALGSTLDALLE	-0.562
HMVDVNLLKYYVMESGKSLTDVAAAIGVTPATLHRKMSGESDFYRKEMQDIASYLGLDRDTIDRIFF	-1.84
HMVEDIVLTDAQIEFVKQQAKNGLSAFQISEMIWPEMSVKRFSKQHVAVLDFLREYEPAYVHDSE	0.156
HMVEELDVQFIKLTVQGDHPWKNKKIRELSIPWDLLFVLIIRGDKSIIPNGKTTIKDGDIVVVSAPEYRG	-1.12
HMVEFLMESTNGMYGIVKEGSSYYVQKGINESSLDYIGGMFMKDKNRFSSYSTALKRLELISGQET	-0.419
HMVEGMQFDRGYQSPYFVTNAEKMVAELDNPYILLVEKKISSMKELLPVLEPVAQQGKSLLIISEEVEG	0.0546
HMVEGTVKWFNDEKGFGFIEQEGGKDVFVHFSAINGSGRRTLHEGQRVTMEVTQGQKGPQAENVNP	0.147
HMVEIPEFKITTFVNTDNEQIAEFENGFTDKKAEITFNNTKYVFKEKLPDQDGIRTYVYEELHE	0.141
HMVELGMSQNEFIQKFGKPFNKEMAYTYDKHKRETLFYKEDLYRGSWFIVTTAFTFVDSKLVSQEIVREER	-3.36

Sequence	soluble fraction (log2)
HMVENMDEFIGRVRRLVSDRLDLLKEASDDEIRETISQVVLELSREQFLTLNEKKTVLEGVFNSMR	-0.944
HMVERLVVSPGAGVFAPNKAIANGTRISVGDVLGMVGEQEVRSLFDGVLQSFISVDGERLTAHQPVAWLRT	-0.587
HMVEVPKVAGMSTAQGVSELEQKGFVVNRTESYDDTVPKGNIISQTPEGGTKVPSGSAVTIKISQGAE	-0.159
HMVEVPNVIGMTKPELTQQFVNLKLDGSGEGDVVVQQSPSEGSKVKEGSTVRVYFG	0.128
HMVEVPNVSNLTLEQAENKLIQQGLQVKLEGQGEKVVAQIPQPGAVVNKKSTVILF	0.258
HMVFLPDEIFRLKVIKAGEGPEQGVGYLDDGTMVVIEGARDRIGDELEVRVTSTLQTNAGKMIFTKFE	-0.548
HMVGEPEPIRYSRFLDEMKSGKLDSVVIQGDTILGVRKDKSQFKTVNPETDYSALIGALDKAGVGIEGRA	0.132
HMVGEYTVKKGDTLWKIAGQTLGSPLRYAEIYELNKDVIEEAALGRGKKNSSNGHWIFQGTVLKIPA	-0.188
HMVGIAEAMKHIADEDYGDLSAIFKQIFSDTDGGRNFSDAIRTQMRSTDSSGLRKVLSTLIMSIEE	-0.651
HMVGNEEALRAIVESIIAQNTTEVASFREGKEGLIGWFLGQVMRQTGGKADPKLARQILLELLKQ	-0.449
HMVGNYYDILGVPETATQDAIKKAFRSLAQQHHPDKNPDDPGAEAMFKKVSEAYQVLSDPDKRQTYDASL	-0.00926
HMVIDFYDPQTKVIHEIKKSSAKEEAHVWQVKYYIYLFEKEEIMGVKGVLEYPLLREIVSVNF	0.19
HMVINQRKLNLLSIYSSGSEKRAIILFPTGQTKFVKVGDTLDGGRVAAIGTSEIRYLKGGNNLVLRIPG	-2.64
HMVINTRHTGFVVDDLERFINFYLGLGLKLISRKVESGEYIDKLVGLKGTKLEWAKLSLPDNSMIEILKYH	-0.508
HMVIREVNDNPVSAEELRLGDRVKVLSLGQNGEIVTLPDEKGELTVQVGILKAKVNLDDIMLI	-0.177
HMVISAKRMQDRRDSILDAAREAFARAGFEGTSIADIARRAGVSDGLVYRYFASKRDLLNAVLTA	-1.61
HMVIVGGDVIVHYVDTEGKKISDDVVKSGNVGEDYSTDQKTILGYRFKEVQGNTSGKFTDKTQVVTYIYT	0.649
HMVKEVKVPDVEGLTTEEAIKELKKYGLAYTTKSEENTDIEEGKVIRTEPKKGSTKVKGSTVTIIESSG	0.451
HMVKFGERVKQLRLSAGMTQEQLAERIWVTKAAISNYELSERNPSPETIIKIAGVFGVTTDYLLGLED	-1.9
HMVKIVWSKEGPYVGTRVRRYFSQGPVDGTVVMYAKPQKGDDVALWRISHDDGDEEDLEEQELRLAID	-1.06
HMVKLQATPSQRKTLDELYVQLKKLEPTAKEDLSLLRRLENSHLVSKQEAQGLISKAIGRVGALAVEQQP	0.0219
HMVKNTIHVDLKGEVNKPGVYEVEEGTIVNDLITLANGFTKNAYQDNINLSKKLTDEMVIVVSKKGS	0.476
HMVKNVVIPDVSNKAPVDASNQLTDLGFEVVTEYKYIASDTIEEGKVVKTSPEIGSKRKYGQKITLYISSG	-1.23
HMVKRAYGEYVNVKLTDADLSKLKADFPADWQERIERLSTYMASTGKTYKNHLATIRNWARRDAERVSA	0.958
HMVKVSVYPNPAVDRITISGEVKAYAVYDATGKVVMKDTDYRGGAIGVSHLPAGIYIVRTDAGAVTVNK	-0.595
